Target: von Willebrand factor (vWF) (UniProt P04275)
Assay: solid-phase binding assay, vWF coated on wells, FVIII 0.05-6.4 nM, no antibody, detection with biotinylated 1F5; one-site model

Sequence of B-domain deleted factor VIII (FVIII) (P00451 20-759, stated change not applied): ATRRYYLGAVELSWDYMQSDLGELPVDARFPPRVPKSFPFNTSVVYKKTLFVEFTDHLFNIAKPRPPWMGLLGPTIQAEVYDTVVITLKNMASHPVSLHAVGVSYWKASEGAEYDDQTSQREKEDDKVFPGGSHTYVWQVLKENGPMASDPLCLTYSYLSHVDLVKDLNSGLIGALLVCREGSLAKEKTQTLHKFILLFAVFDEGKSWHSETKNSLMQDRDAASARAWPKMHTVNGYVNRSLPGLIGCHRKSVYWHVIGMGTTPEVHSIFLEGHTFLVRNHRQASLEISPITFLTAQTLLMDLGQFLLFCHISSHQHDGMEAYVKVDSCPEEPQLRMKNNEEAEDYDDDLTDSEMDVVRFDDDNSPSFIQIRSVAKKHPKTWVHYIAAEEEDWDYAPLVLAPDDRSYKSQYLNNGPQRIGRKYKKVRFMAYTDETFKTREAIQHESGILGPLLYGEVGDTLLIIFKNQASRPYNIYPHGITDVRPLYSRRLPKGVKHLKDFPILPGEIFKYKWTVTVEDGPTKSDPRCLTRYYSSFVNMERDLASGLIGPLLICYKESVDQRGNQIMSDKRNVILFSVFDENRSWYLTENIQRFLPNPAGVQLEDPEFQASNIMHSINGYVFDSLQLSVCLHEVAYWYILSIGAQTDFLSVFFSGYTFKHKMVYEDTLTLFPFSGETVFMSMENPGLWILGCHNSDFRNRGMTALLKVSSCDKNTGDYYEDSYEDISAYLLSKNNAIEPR
Sequence of B-domain deleted factor VIII (FVIII) (P00451 1668-2351, stated change not applied): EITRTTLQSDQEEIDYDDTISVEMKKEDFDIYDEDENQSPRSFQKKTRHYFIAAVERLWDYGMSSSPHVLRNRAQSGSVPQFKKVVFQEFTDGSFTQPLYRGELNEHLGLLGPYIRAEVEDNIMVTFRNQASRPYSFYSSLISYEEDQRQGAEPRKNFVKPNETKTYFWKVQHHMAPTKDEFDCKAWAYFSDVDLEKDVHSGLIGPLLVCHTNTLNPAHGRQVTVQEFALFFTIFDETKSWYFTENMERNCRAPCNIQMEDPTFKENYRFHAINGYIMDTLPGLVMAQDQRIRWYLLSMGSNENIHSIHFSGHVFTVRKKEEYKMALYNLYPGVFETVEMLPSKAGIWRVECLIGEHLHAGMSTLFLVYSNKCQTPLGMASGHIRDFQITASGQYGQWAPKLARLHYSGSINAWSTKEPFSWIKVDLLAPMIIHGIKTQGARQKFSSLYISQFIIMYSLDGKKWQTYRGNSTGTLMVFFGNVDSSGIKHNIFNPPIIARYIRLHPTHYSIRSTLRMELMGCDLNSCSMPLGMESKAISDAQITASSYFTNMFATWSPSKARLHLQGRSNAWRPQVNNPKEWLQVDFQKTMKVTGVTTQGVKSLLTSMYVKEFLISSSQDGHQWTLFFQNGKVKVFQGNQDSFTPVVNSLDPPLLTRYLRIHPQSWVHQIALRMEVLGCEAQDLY

Kd: 290 pM
Substance: B-domain deleted factor VIII (FVIII) (from UniProt P00451 20-759; P00451 1668-2351)

Source: US20130266576A1
